The supplement of paper PMC10567573

B1: HDAC6 (parent)
chain: DLMETTQYMNEGELRVLADTYDSV

Variants of: B1
Experiment: protein stability index of a GFP-peptide fusion (GPS, HEK-293T) (PSI 1-6); higher = more stable
Settings: c terminus: a fixed tail appended
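Further: lentivirally expressed fusions sorted by FACS into six bins by GFP to DsRed ratio, PSI derived from sequencing read proportions per bin multiplied by bin number.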

Variant	protein stability index
DLMETTQYMNEGELRTLADTYDSV [V16T]	4.2
DLMETTQYMNEGELRYLADTYDSV [V16Y]	3.9
DLMETTQYMNEGELRRLADTYDSV [V16R]	4.01
DLMETTQYMNEGELRPLADTYDSV [V16P]	4.81
DLMETTQYMNEGELRWLADTYDSV [V16W]	3.54
DLMETTQYMNEGELRSLADTYDSV [V16S]	4.42
DLMETTQYMNEGELRQLADTYDSV [V16Q]	4.23
DLMETTQYMNEGELRVLANTYDSV [D19N]	1.79
DLMETTQYMNEGELRVLAPTYDSV [D19P]	2.67
DLMETTQYMNEGELRVLARTYDSV [D19R]	2.56
DLMETTQYMNEGELRVLAETYDSV [D19E]	2.03
DLMETTQYMNEGELRVLAFTYDSV [D19F]	2.78
DLMETTQYMNEGELRVLAITYDSV [D19I]	2.55
DLMETTQYMNEGELRVLALTYDSV [D19L]	1.64
DLMETTQYMNEGELRVLAHTYDSV [D19H]	2.42
DLMETTQYMNEGELRVLAKTYDSV [D19K]	2.52
DLMETTQYMNEGELRVLAQTYDSV [D19Q]	1.92
DLMETTQYMNEGELRVLASTYDSV [D19S]	2.12
DLMETTQYMNEGELRVLATTYDSV [D19T]	1.83
DLMETTQYMNEGELRVLAYTYDSV [D19Y]	1.44
DLMETTQYMNEGELRVLAGTYDSV [D19G]	2.6
DLMETTQYMNEGELRVLADTIDSV [Y21I]	1.79
DLMETTQYMNEGELRVLADTADSV [Y21A]	2.69
DLMETTQYMNEGELRVLADTTDSV [Y21T]	3.1

Variant	protein stability index
DLMETTQYMNEGELRVLADTQDSV [Y21Q]	3.21
DLMETTQYMNEGELRVLADTLDSV [Y21L]	1.96
DLMETTQYMNEGELRVLADTHDSV [Y21H]	1.72
DLMETTQYMNEGELRVLADTNDSV [Y21N]	1.61
DLMETTQYMNEGELRVLADTPDSV [Y21P]	2.04
DLMETTQYMNEGELRVLADTCDSV [Y21C]	2.2
DLMETTQYMNEGELRVLADTKDSV [Y21K]	2.74
DLMETTQYMNEGELRVLADTSDSV [Y21S]	2.26
DLMETTQYMNEGELRVLADTMDSV [Y21M]	1.44
DLMETTQYMNEGELRVLADTFDSV [Y21F]	2.24
DLMETTQYMNEGELRVLADTGDSV [Y21G]	2.66
DLMETTQYMNEGELRVLADTDDSV [Y21D]	3.31
DLMETTQYMNEGELRVLADTWDSV [Y21W]	2
DLMETTQYMNEGELRVKADTYDSV [L17K]	2.75
DLMETTQYMNEGELRVYADTYDSV [L17Y]	1.99
DLMETTQYMNEGELRVPADTYDSV [L17P]	4.47
DLMETTQYMNEGELRVDADTYDSV [L17D]	5.03
DLMETTQYMNEGELRVNADTYDSV [L17N]	4.55
DLMETTQYMNEGELRVTADTYDSV [L17T]	3.59
DLMETTQYMNEGELRVSADTYDSV [L17S]	4.34
DLMETTQYMNEGELRVVADTYDSV [L17V]	1.64
DLMETTQYMNEGELRVAADTYDSV [L17A]	2.33
DLMETTQYMNEGELRVWADTYDSV [L17W]	2.33
DLMETTQYMNEGELRVCADTYDSV [L17C]	3.03

Variant	protein stability index
DLMETTQYMNEGELRVRADTYDSV [L17R]	2.97
DLMETTQYMNEGELRVHADTYDSV [L17H]	2.12
DLMETTQYMNEGELRVFADTYDSV [L17F]	2.05
DLMETTQYMNEGELRVIADTYDSV [L17I]	2.77
DLMETTQYMNEGELRVMADTYDSV [L17M]	2.01
DLMETTQYMNEGELRVQADTYDSV [L17Q]	3.11
DLMETTQYMNEGELRVGADTYDSV [L17G]	3.86
DLMETTQYMNEGELRVLADTYASV [D22A]	1.27
DLMETTQYMNEGELRVLADTYCSV [D22C]	2.18
DLMETTQYMNEGELRVLADTYESV [D22E]	1.57
DLMETTQYMNEGELRVLADTYFSV [D22F]	1
DLMETTQYMNEGELRVLADDYDSV [T20D]	2.83
DLMETTQYMNEGELRVLADRYDSV [T20R]	3.07
DLMETTQYMNEGELRVLADFYDSV [T20F]	2.27
DLMETTQYMNEGELRVLADEYDSV [T20E]	2.41
DLMETTQYMNEGELRVLADYYDSV [T20Y]	2.06
DLMETTQYMNEGELRVLADKYDSV [T20K]	1.96
DLMETTQYMNEGELRVLADWYDSV [T20W]	1.77
DLMETTQYMNEGELRVLADNYDSV [T20N]	2.21
DLMETTQYMNEGELRVLADQYDSV [T20Q]	2.58
DLMETTQYMNEGELRVLADLYDSV [T20L]	1.04
DLMETTQYMNEGELRVLADIYDSV [T20I]	2.91
DLMETTQYMNEGELRVLADPYDSV [T20P]	1.99
DLMETTQYMNEGELRVLADSYDSV [T20S]	2.13

Variant	protein stability index
DLMETTQYMNEGELRVLADHYDSV [T20H]	2.71
DLMETTQYMNEGELRVLADAYDSV [T20A]	2.49
DLMETTQYMNEGELRVLADMYDSV [T20M]	1.62
DLMETTQYMNEGELRVLTDTYDSV [A18T]	1.94
DLMETTQYMNEGELRVLYDTYDSV [A18Y]	1.87
DLMETTQYMNEGELRVLQDTYDSV [A18Q]	1.62
DLMETTQYMNEGELRVLSDTYDSV [A18S]	2.09
DLMETTQYMNEGELRVLCDTYDSV [A18C]	2.47
DLMETTQYMNEGELRVLVDTYDSV [A18V]	2.4
DLMETTQYMNEGELRVLFDTYDSV [A18F]	1.86
DLMETTQYMNEGELRVLMDTYDSV [A18M]	1.12
DLMETTQYMNEGELRVLEDTYDSV [A18E]	2.11
DLMETTQYMNEGELRVLNDTYDSV [A18N]	1.65
DLMETTQYMNEGELRVLIDTYDSV [A18I]	1.83
DLMETTQYMNEGELRVLLDTYDSV [A18L]	1.75
DLMETTQYMNEGELRVLKDTYDSV [A18K]	2.18
DLMETTQYMNEGELRVLDDTYDSV [A18D]	2.82
DLMETTQYMNEGELRVLRDTYDSV [A18R]	2.12
DLMETTQYMNEGELRVLGDTYDSV [A18G]	2.86
DLMETTQYMNEGELRVLWDTYDSV [A18W]	1.7
DLMETTQYMNEGELRVLPDTYDSV [A18P]	3.97
DLMETTQYMNEGELRVLHDTYDSV [A18H]	2.06
